{
  "source": "patent US20230365641",
  "key": {"[1]": {"target": "TC73"}, "[2]": {"target": "TC74"}, "[3]": {"target": "TC53"}, "[4]": {"target": "TC68"}, "[5]": {"target": "TC57"}, "[6]": {"target": "TC70"}, "[7]": {"target": "TC69"}, "[8]": {"target": "TC75"}, "[9]": {"target": "TC71"}, "[10]": {"target": "TC3", "sequence (chain, as listed by the source, chain 1 of 3, other chains not shown)": "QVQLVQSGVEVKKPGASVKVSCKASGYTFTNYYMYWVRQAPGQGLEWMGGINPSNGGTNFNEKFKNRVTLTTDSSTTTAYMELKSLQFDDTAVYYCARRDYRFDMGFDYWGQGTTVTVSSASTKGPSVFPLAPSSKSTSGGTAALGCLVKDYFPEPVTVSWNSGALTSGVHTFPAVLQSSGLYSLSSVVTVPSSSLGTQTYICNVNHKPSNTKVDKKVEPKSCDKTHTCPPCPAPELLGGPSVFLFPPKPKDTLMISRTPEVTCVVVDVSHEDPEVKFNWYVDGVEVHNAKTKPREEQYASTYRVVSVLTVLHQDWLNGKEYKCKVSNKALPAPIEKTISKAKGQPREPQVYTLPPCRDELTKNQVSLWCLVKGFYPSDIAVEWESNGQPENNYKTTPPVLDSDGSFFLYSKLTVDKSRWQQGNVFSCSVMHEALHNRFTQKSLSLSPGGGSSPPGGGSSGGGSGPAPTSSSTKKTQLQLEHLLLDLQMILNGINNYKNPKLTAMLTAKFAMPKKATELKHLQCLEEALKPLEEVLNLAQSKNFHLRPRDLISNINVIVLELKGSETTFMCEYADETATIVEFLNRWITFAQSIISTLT", "sequence (chain, as listed by the source, chain 2 of 3, other chains not shown)": "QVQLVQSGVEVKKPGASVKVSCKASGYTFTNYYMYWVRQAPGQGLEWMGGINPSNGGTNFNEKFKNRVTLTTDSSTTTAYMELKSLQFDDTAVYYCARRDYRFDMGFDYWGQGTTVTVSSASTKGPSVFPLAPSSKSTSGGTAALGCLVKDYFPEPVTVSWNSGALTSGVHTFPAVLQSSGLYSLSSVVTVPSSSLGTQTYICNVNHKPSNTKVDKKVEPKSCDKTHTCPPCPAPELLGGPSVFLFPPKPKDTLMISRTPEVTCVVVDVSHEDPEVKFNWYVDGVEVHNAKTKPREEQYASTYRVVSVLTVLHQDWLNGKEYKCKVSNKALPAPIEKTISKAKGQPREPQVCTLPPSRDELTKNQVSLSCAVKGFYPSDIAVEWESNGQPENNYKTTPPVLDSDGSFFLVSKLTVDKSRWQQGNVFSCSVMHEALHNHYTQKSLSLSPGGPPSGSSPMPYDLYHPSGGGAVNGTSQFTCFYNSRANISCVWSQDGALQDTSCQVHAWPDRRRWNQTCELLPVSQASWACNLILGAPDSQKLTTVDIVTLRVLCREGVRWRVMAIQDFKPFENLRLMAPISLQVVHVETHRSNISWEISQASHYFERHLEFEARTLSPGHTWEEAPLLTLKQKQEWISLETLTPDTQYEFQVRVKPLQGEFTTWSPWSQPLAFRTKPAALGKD"}, "[11]": {"target": "TC46", "sequence (chain, as listed by the source, chain 1 of 3, other chains not shown)": "as the sequence (chain, as listed by the source, chain 1 of 3, other chains not shown) above", "sequence (chain, as listed by the source, chain 2 of 3, other chains not shown)": "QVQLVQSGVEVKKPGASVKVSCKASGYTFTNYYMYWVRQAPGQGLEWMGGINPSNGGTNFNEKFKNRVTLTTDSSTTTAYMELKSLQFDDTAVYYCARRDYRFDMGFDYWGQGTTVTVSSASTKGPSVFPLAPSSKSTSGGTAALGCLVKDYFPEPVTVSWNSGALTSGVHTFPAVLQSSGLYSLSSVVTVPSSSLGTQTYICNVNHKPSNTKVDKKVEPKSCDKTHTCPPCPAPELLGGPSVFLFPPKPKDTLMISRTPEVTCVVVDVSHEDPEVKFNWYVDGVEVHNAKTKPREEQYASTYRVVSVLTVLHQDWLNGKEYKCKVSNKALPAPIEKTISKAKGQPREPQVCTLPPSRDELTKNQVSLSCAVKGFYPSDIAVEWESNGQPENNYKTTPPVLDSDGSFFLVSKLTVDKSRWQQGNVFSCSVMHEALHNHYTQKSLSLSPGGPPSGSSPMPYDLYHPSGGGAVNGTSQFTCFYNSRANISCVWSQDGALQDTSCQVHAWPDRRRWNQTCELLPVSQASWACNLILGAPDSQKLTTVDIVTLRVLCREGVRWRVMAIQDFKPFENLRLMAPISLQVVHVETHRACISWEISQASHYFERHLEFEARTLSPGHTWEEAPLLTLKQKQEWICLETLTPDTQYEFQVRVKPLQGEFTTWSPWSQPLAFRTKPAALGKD"}, "[12]": {"target": "TC24", "sequence (chain, as listed by the source, chain 1 of 3, other chains not shown)": "as the sequence (chain, as listed by the source, chain 1 of 3, other chains not shown) above", "sequence (chain, as listed by the source, chain 2 of 3, other chains not shown)": "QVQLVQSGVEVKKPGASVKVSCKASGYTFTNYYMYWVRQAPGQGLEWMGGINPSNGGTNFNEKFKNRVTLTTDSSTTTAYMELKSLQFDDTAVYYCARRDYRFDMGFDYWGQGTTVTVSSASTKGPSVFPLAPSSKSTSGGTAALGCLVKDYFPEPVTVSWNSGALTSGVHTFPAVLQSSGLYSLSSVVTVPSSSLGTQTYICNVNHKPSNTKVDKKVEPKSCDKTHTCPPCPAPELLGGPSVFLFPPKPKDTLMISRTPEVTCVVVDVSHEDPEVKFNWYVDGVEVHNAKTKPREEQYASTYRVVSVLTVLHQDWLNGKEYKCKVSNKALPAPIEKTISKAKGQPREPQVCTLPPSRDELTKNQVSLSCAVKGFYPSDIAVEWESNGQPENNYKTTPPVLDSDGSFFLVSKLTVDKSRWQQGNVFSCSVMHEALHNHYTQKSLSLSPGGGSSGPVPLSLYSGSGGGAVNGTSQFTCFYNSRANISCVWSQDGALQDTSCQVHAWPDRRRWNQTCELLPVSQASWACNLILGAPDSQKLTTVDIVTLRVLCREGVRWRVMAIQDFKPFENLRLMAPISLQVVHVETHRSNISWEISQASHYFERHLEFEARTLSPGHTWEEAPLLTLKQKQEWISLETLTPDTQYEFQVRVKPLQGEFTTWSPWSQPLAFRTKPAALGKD"}, "[13]": {"target": "TC47", "sequence (chain, as listed by the source, chain 1 of 3, other chains not shown)": "as the sequence (chain, as listed by the source, chain 1 of 3, other chains not shown) above", "sequence (chain, as listed by the source, chain 2 of 3, other chains not shown)": "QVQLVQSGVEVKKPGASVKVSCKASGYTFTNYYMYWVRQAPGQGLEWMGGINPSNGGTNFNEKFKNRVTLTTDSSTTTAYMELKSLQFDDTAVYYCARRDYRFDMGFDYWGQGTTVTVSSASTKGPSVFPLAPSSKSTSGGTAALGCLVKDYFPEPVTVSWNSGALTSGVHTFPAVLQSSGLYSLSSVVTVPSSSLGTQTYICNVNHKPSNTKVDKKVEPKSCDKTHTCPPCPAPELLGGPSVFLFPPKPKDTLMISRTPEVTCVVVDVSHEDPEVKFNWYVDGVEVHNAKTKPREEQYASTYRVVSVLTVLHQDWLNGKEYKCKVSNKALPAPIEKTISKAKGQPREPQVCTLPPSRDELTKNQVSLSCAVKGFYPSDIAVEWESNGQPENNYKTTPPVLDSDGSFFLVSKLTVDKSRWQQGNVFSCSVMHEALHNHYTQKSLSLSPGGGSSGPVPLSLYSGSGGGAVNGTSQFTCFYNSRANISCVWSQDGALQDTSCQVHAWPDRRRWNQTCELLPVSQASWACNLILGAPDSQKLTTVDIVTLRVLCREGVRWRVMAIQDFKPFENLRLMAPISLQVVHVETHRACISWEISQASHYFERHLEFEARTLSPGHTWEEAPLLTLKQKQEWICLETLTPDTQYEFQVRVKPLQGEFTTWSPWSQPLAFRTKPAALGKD"}},
  "note": "“And” between values parts separate entries of the source, which are not always exact repeats. Identical values can stand only once.",
  "data": [
    {"protein": "recombinant human MMP-2 (protein) YNFFPRKPKWDKNQITYRIIGYTPDLDPETVDDAFARAFQVWSDVTPLRFSRIHDGEADIMINFGRWEHGDGYPFDGKDGLLAHAFAPGTGVGGDSHFDDDELWTLGEGQVVRVKYGNADGEYCKFPFLFNGKEYNSCTDTGRSDGFLWCSTTYNFEKDGKYGFCPHEALFTMGGNAEGQPCKFPFRFQGTSYDSCTTEGRTDGYRWCGTTEDYDRDKKYGFCPETAMSTVGGNSEGAPCVFPFTFLGNKYESCTSAGRSDGKMWCATTANYDDDRKWGFCPDQGYSLFLVAAHEFGHAMGLEHSQDPGALMAPIYTYTKNFRLSQDDIKGIQELYGASPDIDLGTGPTPTLGPVTPEICKQDIVFDGIAQIRGEIFFFKDRFIWRTVTPRDKPMGPLLVATFWPELPEKIDAVYEAPQEEKAVFFAGNEYWIYSASTLERGYPKPLTSLGLPPDVQRVDAAFNWSKNKKTYIFAGDKFWRYNEVKKKMDPGFPKLIADAWNAIPDNLDAVVDLQGGGHSYFFKGAYYLKLENQSLKSVKFGSIKSDWLGC", "values": [
      {"measurement": "Est. kcat/KM", "setting": "[1]", "value": "43000 M⁻¹ s⁻¹ and 41000 M⁻¹ s⁻¹"},
      {"measurement": "Est. kcat/KM", "setting": "[2]", "value": "9600 M⁻¹ s⁻¹ and 9800 M⁻¹ s⁻¹"},
      {"measurement": "Est. kcat/KM", "setting": "[3]", "value": "4900 M⁻¹ s⁻¹ and 4700 M⁻¹ s⁻¹"},
      {"measurement": "Est. kcat/KM", "setting": "[4]", "value": 3800, "unit": "M⁻¹ s⁻¹"},
      {"measurement": "Est. kcat/KM", "setting": "[5]", "value": "4000 M⁻¹ s⁻¹ and 4400 M⁻¹ s⁻¹"},
      {"measurement": "Est. kcat/KM", "setting": "[6]", "value": 11000, "unit": "M⁻¹ s⁻¹"},
      {"measurement": "Est. kcat/KM", "setting": "[7]", "value": "51000 M⁻¹ s⁻¹ and 50000 M⁻¹ s⁻¹"},
      {"measurement": "Est. kcat/KM", "setting": "[8]", "value": "120000 M⁻¹ s⁻¹ and 110000 M⁻¹ s⁻¹"},
      {"measurement": "Est. kcat/KM", "setting": "[9]", "value": "130000 M⁻¹ s⁻¹ and 140000 M⁻¹ s⁻¹"}
    ]},
    {"protein": "recombinant human MMP-7 (protein) YSLFPNSPKWTSKVVTYRIVSYTRDLPHITVDRLVSKALNMWGKEIPLHFRKVVWGTADIMIGFARGAHGDSYPFDGPGNTLAHAFAPGTGLGGDAHFDEDERWTDGSSLGINFLYAATHELGHSLGMGHSSDPNAVMYPTYGNGDPQNFKLSQDDIKGIQKLYGKRSNSRKK", "values": [
      {"measurement": "Est. kcat/KM", "setting": "[1]", "value": "71000 M⁻¹ s⁻¹ and 67000 M⁻¹ s⁻¹"},
      {"measurement": "Est. kcat/KM", "setting": "[3]", "value": "24000 M⁻¹ s⁻¹ and 23000 M⁻¹ s⁻¹"},
      {"measurement": "Est. kcat/KM", "setting": "[4]", "value": 13000, "unit": "M⁻¹ s⁻¹"},
      {"measurement": "Est. kcat/KM", "setting": "[10]", "value": 13000, "unit": "M⁻¹ s⁻¹"},
      {"measurement": "Est. kcat/KM", "setting": "[5]", "value": "13000 M⁻¹ s⁻¹ and 15000 M⁻¹ s⁻¹"},
      {"measurement": "Est. kcat/KM", "setting": "[11]", "value": 13000, "unit": "M⁻¹ s⁻¹"},
      {"measurement": "Est. kcat/KM", "setting": "[12]", "value": 140000, "unit": "M⁻¹ s⁻¹"},
      {"measurement": "Est. kcat/KM", "setting": "[7]", "value": 78000, "unit": "M⁻¹ s⁻¹"},
      {"measurement": "Est. kcat/KM", "setting": "[8]", "value": "18000 M⁻¹ s⁻¹ and 19000 M⁻¹ s⁻¹"},
      {"measurement": "Est. kcat/KM", "setting": "[9]", "value": "19000 M⁻¹ s⁻¹ and 22000 M⁻¹ s⁻¹"},
      {"measurement": "Est. kcat/KM", "setting": "[13]", "value": 130000, "unit": "M⁻¹ s⁻¹"}
    ]}
  ]
}
